# Patent publication US6110457
# T1: bovine fetuin (type IV; Sigma Chemical Company) (bovine) (UniProt P12763)
# T1 sequence: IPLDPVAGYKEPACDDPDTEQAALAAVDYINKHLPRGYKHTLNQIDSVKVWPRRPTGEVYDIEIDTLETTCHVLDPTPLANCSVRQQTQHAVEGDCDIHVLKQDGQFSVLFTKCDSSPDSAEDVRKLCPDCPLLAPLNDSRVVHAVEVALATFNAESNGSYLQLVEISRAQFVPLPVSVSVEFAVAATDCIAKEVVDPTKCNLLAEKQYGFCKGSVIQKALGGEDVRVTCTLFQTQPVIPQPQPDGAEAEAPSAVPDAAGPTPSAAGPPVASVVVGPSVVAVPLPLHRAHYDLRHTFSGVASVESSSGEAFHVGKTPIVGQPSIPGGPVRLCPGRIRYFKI
# Biological target: T1, bovine fetuin (type IV; Sigma Chemical Company) (bovine)
binder,measurement,value
"hemagglutinin-neuraminidase protein, HN, of wild-type HPIV-3 (JS) (enzyme) MEYWKHTNHGKDAGNELETSMATHGNKLTNKIIYILWTIILVLLSIVFIIVLINSIKSEKAHESLLQDINNEFMEITEKIQMASDNTNDLIQSGVNTRLLTIQSHVQNYIPISLTQQMSDLRKFISEITIRNDNQEVLPQRITHDVGIKPLNPDDFWRCTSGLPSLMKTPKIRLMPGPGLLAMPTTVDGCVRTPSLVINDLIYAYTSNLITRGCQDIGKSYQVLQIGIITVNSDLVPDLNPRISHTFNINDNRKSCSLALLNTDVYQLCSTPKVDERSDYASSGIEDIVLDIVNYDGSISTTRFKNNNISFDQPYAALYPSVGPGIYYKGKIIFLGYGGLEHPINENVICNTTGCPGKTQRDCNQASHSPWFSDRRMVNSIIVVDKGLNSIPKLKVWTISMRQNYWGSEGRLLLLGNKIYIYTRSTSWHSKLQLGIIDITDYSDIRIKWTWHNVLSRPGNNECPWGHSCPDGCITGVYTDAYPLNPTGSIVSSVILDSQKSRVNPVITYSTATERVNELAILNRTLSAGYTTTSCITHYNKGYCFHIVEINHKSLNTFQPMLFKTEIPKSCS",Neuraminidase activity with Fetuin (optical density values at 549nm) (optical density at 549nm),1.11
